Experimental data reported in patent publication US20240287172A1 (SCIRHOM, published 2024).

T1: hiR2-FL-I566E-T7 (human, UniProt Q6PJF5 1-856)
T1 construct: on MEF-DKO cells; also called hiR2-FL-1566E-T7
T1 sequence: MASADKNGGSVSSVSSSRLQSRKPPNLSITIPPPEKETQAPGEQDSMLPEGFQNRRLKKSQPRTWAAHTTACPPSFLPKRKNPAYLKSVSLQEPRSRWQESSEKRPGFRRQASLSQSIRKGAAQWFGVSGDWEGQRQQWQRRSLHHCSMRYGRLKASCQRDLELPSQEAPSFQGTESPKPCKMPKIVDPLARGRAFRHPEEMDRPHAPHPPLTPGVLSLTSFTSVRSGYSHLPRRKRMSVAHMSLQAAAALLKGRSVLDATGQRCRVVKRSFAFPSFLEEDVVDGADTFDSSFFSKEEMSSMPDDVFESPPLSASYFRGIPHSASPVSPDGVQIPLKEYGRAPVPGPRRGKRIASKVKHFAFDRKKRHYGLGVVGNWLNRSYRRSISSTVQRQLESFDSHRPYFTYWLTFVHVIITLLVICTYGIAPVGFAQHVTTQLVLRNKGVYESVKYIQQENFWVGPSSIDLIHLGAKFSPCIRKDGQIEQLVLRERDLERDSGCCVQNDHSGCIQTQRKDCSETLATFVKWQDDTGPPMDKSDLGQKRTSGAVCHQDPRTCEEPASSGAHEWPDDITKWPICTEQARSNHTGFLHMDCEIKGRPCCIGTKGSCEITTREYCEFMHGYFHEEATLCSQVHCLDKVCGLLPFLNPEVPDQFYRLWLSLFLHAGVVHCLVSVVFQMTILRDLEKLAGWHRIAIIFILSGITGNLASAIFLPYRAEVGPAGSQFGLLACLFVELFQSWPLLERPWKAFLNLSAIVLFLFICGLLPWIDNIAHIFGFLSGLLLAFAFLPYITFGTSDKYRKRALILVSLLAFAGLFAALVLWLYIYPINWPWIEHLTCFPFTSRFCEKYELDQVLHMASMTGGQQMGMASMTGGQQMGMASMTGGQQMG


Experiments:
[1] = biological target: T2, mouse iR1 wild type (mouse); experiment: FACS, MEF-DKO cells, 3 µg/ml
T2 construct: wild type, expressed on cells; also called mouse iRhom1 wild type

[2] = biological target: T1, hiR2-FL-I566E-T7; experiment: FACS, MEF-DKO cells, 3 µg/ml
Excerpt: In brief, immortalized MEF-DKO hiR2-FL-G563D-T7, MEF-DKO hiR2-FL-A564P-T7, MEF-DKO hiR2-FL-1566E-T7, MEF-DKO hiR2-FL-D569E-T7, MEF-DKO hiR2-FL-E579K-T7, MEF-DKO hiR2-FL-Q580N-T7, MEF-DKO hiR2-FL-A581S-T7, MEF-DKO hiR2-FL-R582A-T7, MEF-DKO hiR2-FL-S583G-T7, MEF-DKO hiR2-FL-G587N-T7, MEF-DKO hiR2-FL-F588H-T7, MEF-DKO hiR2-FL-L589P-T7, MEF-DKO hiR2-FL-E594V-T7, MEF-DKO hiR2-FL-K596T-T7, MEF-DKO hiR2-FL-S607R-T7, MEF-DKO hiR2-FL-T612S-T7, MEF-DKO hiR2-FL-E617D-T7, MEF-DKO hiR2-FL-H620R-T7, MEF-DKO hiR2-FL-L636M-T7, MEF-DKO hiR2-FL-K638D-T7, MEF-DKO hiR2-FL-1771F-T7, MEF-DKO hiR2-FL-1825V-T7, MEF-DKO hiR2-FL-1828V-T7, MEF-DKO hiR2-FL-N829R-T7, MEF-DKO hiR2-FL-W830C-T7, MEF-DKO hiR2-FL-P831E-T7, MEF-DKO hiR2-FL-I833C-T7, MEF-DKO hiR2-FL-H835F-T7, MEF-DKO hiR2-FL-F8391-T7, MEF-DKO hiR2-FL-S843D-T7, MEF-DKO hiR2-FL-Q853A-T7, MEF-DKO hiR2-FL-V854Q-T7 and MEF-DKO hiR2-FL-R844K-T7 cells were harvested with 10 mM EDTA in PBS, washed and resuspended in FACS buffer (PBS, 3% FBS, 0.05% sodium azide), and seeded in Nunc U-bottom 96-well plates (Thermo Fisher Scientific, USA) at approximately 1×10⁵ cells per well. To pellet cells and remove supernatants, the plates were centrifuged at 1,500 rpm and 4° C. for 3 minutes. For primary staining, cells were resuspended in 100 μl per well of either FACS buffer alone (controls) or the purified antibodies 3, 5, 16, 22, 34, 42, 43, 44, 48, and 50 of the invention at 3 μg/ml in FACS buffer and incubated on ice for 1 hour. Afterwards, plates were centrifuged at 1,500 rpm and 4° C. for 3 minutes and washed twice with 200 μl per well of FACS buffer. For secondary staining, cells were spun down and resuspended in 100 μl per well of PE-conjugated goat anti-mouse IgG F(ab′)2 detection fragment (Dianova, Germany) diluted 1:100 in FACS buffer. Protected from light, the cell suspensions were incubated on ice for 1 hour. Plates were then centrifuged at 1,500 rpm and 4° C. for 3 minutes and washed three times with 200 μl per well of FACS buffer. Finally, cells were resuspended in 150 μl per well of FACS buffer and analyzed using a BD Accuri™ C6 Plus flow cytometer (Becton Dickinson, Germany).

Row | Binder | loss of binding vs wild type [1] [%] | loss of binding vs wild type [2] [%]
1 | antibody 34 (antibody, V domains shown, mouse IgG, kappa light chain; also called clone #34; purified antibody 34) VH: QVTLKESGPGILQPSQTLSLTCSFSGFSLSTFSLGVGWIRQSSGKGLEWLAHIWWDDEKYYNPALKSRLTISKDTSKNQVFLKIANVDAADTATYYCARAYYSKSYYALDYWGQGTSVTVSS VL: DIQMTQSPSSLSASLGERVSLTCRASQEISGYLSWLQQKPDGTIKRLIYAASTLDSGVPKRFSGSRSGSDYSLAISSLESEDFADYYCLQYANFPFTFGSGTKLEIK | ≥ 95 | ≥ 60
2 | antibody 48 (antibody, V domains shown, mouse IgG, kappa light chain; also called clone #48; purified antibody 48) VH: QVQLQQSGTELVRPGTSVKVSCKASGYAFTNYLIEWVKQRPGQGLEWIGVINPGSGFTKYNEKFKGKATLTADKSSSTVYMHLSSLTSEDSAVYFCARGLYRAMDYWGQGTSVTVSS VL: DIQMTQSPASQSASLGESVTITCLASQTIATWLAWYQQKPGKSPQLLIYGATTLADGVPSRFSGGGSGTKFSFKISSLQAEDFVSYYCQQLYSTPYTFGGGTKLEIK | ≥ 60 | –
3 | antibody 50 (antibody, V domains shown, mouse IgG, kappa light chain; also called clone #50; purified antibody 50) VH: QVQLQQSGAELVRPGASVKVSCKASGYAFSNYLIEWVKQRPGQGLEWIGVINPGSGFTKYNEKFKGKATLTADKSSSTAYMQLSSLTSEDSAVYFCARGLYRAMDYWGQGTSVTVSS VL: DIQMTQSPASQSASLGESVTITCLASQTIGTWLAWYQQKPGKSPQLLIYAAASLADGVPSRFSGGGSGTKFSFKISSLQAEDFVNYYCQQIYSTPYTFGGGTKLEIK | ≥ 95 | –
4 | antibody 16 (antibody, V domains shown, mouse IgG, kappa light chain; also called clone #16; purified antibody 16) VH: QVTLKESGPGILQPSQTLSLTCSFSGFSLSTFALGVGWIRQPSGRGLEWLAHIWWDDDKYYNPALKSRLTISKDTSKNHVFLKIANVDTADTATYYCARITTYYYGMDYWGQGTSVTVSS VL: DIVLSQSPATLSVTPGDSVSLFCRASQSIGNHLHWYQQESHASPRLLIKYASQSISGIPSRFSGSGSGTDFTLSINSVETEDFGMYFCQQSYNWPLTFGAGTKLELK | ≥ 95 | –
5 | antibody 3 (antibody, V domains shown, mouse IgG, kappa light chain; also called clone #3; purified antibody 3) VH: QVTLKESGPGILQPSQTLSLTCSFSGFSLTTFAMGIGWVRQPSGKGLEWLAHIWWDGEKYNNPVLKSRLTISKDTSKNQVFLRIANVDTPDTATYYCARISSIYYIIDNWGQGTSVTVSS VL: DIVLTQSPATLSVTPGHSVSLSCRASQSISNNLHWYQKKSHESPRLLIKYVSQSISGIPSRFSGSGSGTDFTLSINSVETEDFGMYFCQQSYNWPLTFGAGTKLELK | ≥ 95 | ≥ 30
6 | antibody 5 (antibody, V domains shown, mouse IgG, kappa light chain; also called clone #5; purified antibody 5) VH: QVTLKESGPGILQPSQTLSLTCSFSGFSLSTFGMGVGWIRQPSGKGLEWLAHIWWDDEKYYNSALKSRLTISKATSKNQAFLKIANVDTADTATYYCARISNYGSNYWYFNVWGTGTTVTVSS VL: QVVLTQSPALMSASPGEKVTMTCSAGSSVSCMYWYQQKPGSSPRVLIYDTSNLASGVPARFTGSGSGTSYSLTISRMEAEDAASYYCQQWNSYPLTFGAGTKLELK | ≥ 95 | ≥ 95
7 | antibody 44 (antibody, V domains shown, mouse IgG, kappa light chain; also called clone #44; purified antibody 44) VH: QVTLKESGPGILQPSQTLSLTCSFSGFSLSTFGMGVGWIRQPSEKGLEWLAHIWWDDDKYYNPALKSRLTISKDTSKNQIFLKITNVDTAETATYYCSRIGNYGSNYWYFDVWGTGTTVTVSS VL: QIVLTQSPAVMSASPGEKVTMTCTASSSVYYMYWYQQTPGSSPRLLIYDTSNLASGVPVRFSGSGSGTSYSLTISRMEAEDAATYYCQQWNTYPLTFGAGTKLELK | ≥ 95 | ≥ 60
8 | antibody 43 (antibody, V domains shown, mouse IgG, kappa light chain; also called clone #43; purified antibody 43) VH: QVALKESGPGILQPSQTLSLTCSFSGFSLSTFGMGVGWIRQSSGKGLEWLANIWWDDDKYYNPALKSRLTISKDASKNQAFLKIANVDTADTATYYCARIGNYGSNYWYFDVWGTGTTVTVSS VL: QIVLTQSPAIMSASPGERVTMTCSANSRISYMYWYQQKPGSSPRLLIYDTSNLASGVPVRFSGSGSGTSYSLTISRMEAEDAATYNCQQWSSYPLTFGAGTKLELK | ≥ 95 | ≥ 60
9 | antibody 42 (antibody, V domains shown, mouse IgG, kappa light chain; also called clone #42; purified antibody 42) VH: QVTLKESGPGILQPSQTLSLTCSLSGFSLSTFGRGVGWIRQPSGKGLEWLAHIWWDDEKYYNPALKSRLTISKDTSKNQVFLRIANVDTADTATYYCARIQNYGSNYWYFDVWGTGTTVTVSS VL: LIVLTQSPAIMSASPGEKVTMTCGATSRISYMFWYQQKPGSSPRVLIYDTSNLASGVPVRFSGSGSGTSYSLTISRVEAEDVATYYCQQWNSYPLTFGAGTKLELK | ≥ 95 | ≥ 60
10 | antibody 22 (antibody, V domains shown, mouse IgG, kappa light chain; also called clone #22; purified antibody 22) VH: QVTLKESGPGILQPSQTLSLTCSFSGFSLSTFGMGVGWIRQPSGKGLEWLAHIWWDDEKYYNSALKSRLTISKATSKNQVFLKIANVDTADTATYYCARISNYGSNYWYFNVWGTGTTVTVSS VL: QVVLTQSPALMSASPGEKVTMTCSAGSSVSYMYWYQQKPGSSPRVLIYDTSNLASGVPARFTGSGSGTSYSLTISRMEAEDAATYYCQQWNSYPLTFGAGTKLELK | ≥ 95 | ≥ 60
